# Source: patent publication US20130251642A1 (US Dept. of Health and Human Services, published 2013)
# B1: chimeric rabbit/human IgG1 R11 (antibody, V domains shown)
# VH: QSVKESEGDLVTPAGNLTLTCTASGSDINDYPISWVRQAPGKGLEWIGFINSGGSTWYASWVKGRFTISRTSTTVDLKMTSLTTDDTATYFCARGYSTYYCDFNIWGPGTLVTISS
# VL: ELVMTQTPSSTSGAVGGTVTINCQASQSIDSNLAWFQQKPGQPPTLLIYRASNLASGVPSRFSGSRSGTEYTLTISGVQREDAATYYCLGGVGNVSYRTSFGGGTEVVVK
# notes: IgG1 format from vector PIGG (human gamma 1 heavy and kappa light constant regions), four polypeptide chains, made in HEK 293F cells; Biotinylated for flow cytometry; also called IgG1 11; mAb R11
# B2: chimeric rabbit/human IgG1 R12 (antibody, V domains shown)
# VH: QEQLVESGGRLVTPGGSLTLSCKASGFDFSAYYMSWVRQAPGKGLEWIATIYPSSGKTYYATWVNGRFTISSDNAQNTVDLQMNSLTAADRATYFCARDSYADDGALFNIWGPGTLVTISS
# VL: ELVLTQSPSVSAALGSPAKITCTLSSAHKTDTIDWYQQLQGEAPRYLMQVQSDGSYTKRPGVPDRFSGSSSGADRYLIIPSVQADDEADYYCGADYIGGYVFGGGTQLTVTG
# notes: IgG1 format from vector PIGG; The light chain is rabbit V lambda and human C kappa; the heavy chain has the human gamma 1 constant region; Made in HEK 293F cells; Biotinylated for flow cytometry; also called mAb R12
# B3: chimeric rabbit/human IgG1 Y31 (antibody, V domains shown)
# VH: QSLEESGGRLVTPGTPLTLTCTVSGIDLNSHWMSWVRQAPGKGLEWIGIIAASGSTYYANWAKGRFTISKTSTTVDLRIASPTTEDTATYFCARDYGDYRLVTFNIWGPGTLVTVSS
# VL: ELVMTQTPSSVSAAVGGTVTINCQASQSIGSYLAWYQQKPGQPPKLLIYYASNLASGVPSRFSGSGSGTEYTLTISGVQREDAATYYCLGSLSNSDNVFGGGTELEIL
# notes: IgG1 format from vector PIGG (human gamma 1 heavy and kappa light constant regions), made in HEK 293F cells; Biotinylated for flow cytometry; also called mAb Y31
# B4: chimeric rabbit/human Fab R11 (Fab, V domains shown)
# VH: B1 VH
# VL: B1 VL
# notes: Fab with human C kappa and human CH1; For SPR it was the purified Fab-(His)6 from pET11a (HA tag removed, C-terminal His6)
# B5: chimeric rabbit/human Fab R12 (Fab, V domains shown)
# VH: B2 VH
# VL: B2 VL
# notes: The light chain is rabbit V lambda with human C kappa; SPR: purified Fab-(His)6
# B6: chimeric rabbit/human Fab Y31 (Fab, V domains shown)
# VH: B3 VH
# VL: B3 VL
# notes: Fab with human C kappa and human CH1; SPR: purified Fab-(His)6
# Key:
# cell surface human ROR1 [1] = biological target: T1, cell surface human ROR1 (human, UniProt Q01973 30-937); test: flow cytometry on primary CLL cells of one patient, IgG1 at 5 µg/mL
# T1 construct: whole, on cells; The cell type of each entry is named under assay; also called HEK 293F/hROR1; HEK 293F cells stably transfected with human ROR1
# [2] = biological target: T2, hROR2-Fc (commercially available, R&D Systems) (human, UniProt Q01974 34-403); test: ELISA, antigen immobilized, antibody in IgG1 format, absorbance at 405 nm
# T2 construct: Bought from R&D Systems; also called human ROR2 (hROR2-Fc); not shown: Fc part of the bought fusion
# [3] = biological target: T3, Fc-hROR1 (the three extracellular domains of human ROR1 fused to the Fc domain of human IgG1) (human, UniProt Q01973 30-406); test: SPR on immobilized Fc-hROR1; bivalent IgG1 R11 against monovalent Fab R11
# T3 construct: extracellular domain; also called human ROR1 (Fc-hROR1); not shown: Fc domain of human IgG1
# Fc-hROR1fz = biological target: T4, Fc-hROR1fz (human, UniProt Q01973 165-299, limits assumed); test: ELISA, Fc fusion of one or two domains of human ROR1 immobilized, antibody in IgG1 format, absorbance at 405 nm
# T4 construct: domain: Frizzled; not shown: Fc domain (human IgG1 Fc is stated for Fc-hROR1; not restated for this construct)
# Fc-hROR1ig [4] = biological target: T5, Fc-hROR1ig (human, UniProt Q01973 30-147, limits assumed); test: as above
# T5 construct: domain: Ig; not shown: Fc domain (human IgG1 Fc is stated for Fc-hROR1; not restated for this construct)
# Fc-hROR1ig+fz = biological target: T6, Fc-hROR1ig+fz (human, UniProt Q01973 30-299, limits assumed); test: as above
# T6 construct: domain: Ig and Frizzled; not shown: Fc domain (human IgG1 Fc is stated for Fc-hROR1; not restated for this construct)
# cell surface human ROR1 [5] = biological target: T1, cell surface human ROR1; test: flow cytometry on primary CLL cells of one patient, IgG1 at 0.1 µg/mL
# cell surface human ROR1 [6] = biological target: T1, cell surface human ROR1; test: flow cytometry on primary CLL cells of one patient, IgG1 at 1 µg/mL
# [7] = biological target: T3, Fc-hROR1 (the three extracellular …); test: SPR on immobilized Fc-hROR1; bivalent IgG1 R12 against monovalent Fab R12
# [8] = biological target: T7, Fc-mROR1 (mouse analogue of Fc-hROR1) (mouse, UniProt Q9Z139 30-406); test: ELISA, antigen immobilized, antibody in IgG1 format, absorbance at 405 nm
# T7 construct: extracellular domain; also called mouse ROR1 (Fc-mROR1); not shown: Fc domain (human IgG1 Fc is stated for Fc-hROR1; not restated for this construct)
# Fc-hROR1kr [9] = biological target: T8, Fc-hROR1kr (human, UniProt Q01973 312-391); test: ELISA, Fc fusion of one or two domains of human ROR1 immobilized, antibody in IgG1 format, absorbance at 405 nm
# T8 construct: domain: Kringle; not shown: Fc domain (human IgG1 Fc is stated for Fc-hROR1; not restated for this construct)
# Fc-hROR1fz+kr = biological target: T9, Fc-hROR1fz+kr (human, UniProt Q01973 165-406, limits assumed); test: as above
# T9 construct: domain: Frizzled and Kringle; also called Fc-hROR1kr+fz; Fc-ROR1fz+kr; not shown: Fc domain (human IgG1 Fc is stated for Fc-hROR1; not restated for this construct)
# [10] = biological target: T3, Fc-hROR1 (the three extracellular …); test: SPR on immobilized Fc-hROR1; bivalent IgG1 Y31 against monovalent Fab Y31
# [11] = biological target: T2, hROR2-Fc (commercially available, R&D …); test: ELISA on immobilized hROR2-Fc (Fab data not shown)
# Fc-hROR1ig [12] = biological target: T5, Fc-hROR1ig; test: ELISA on immobilized Fc-hROR1ig (Fab data not shown)
# [13] = biological target: T7, Fc-mROR1 (mouse analogue of Fc-hROR1); test: SPR (Biacore X100), Fc-mROR1 immobilized on CM5 chip
# Fc-hROR1kr [14] = biological target: T8, Fc-hROR1kr; test: ELISA on immobilized Fc-hROR1kr (Fab data not shown)
# T8 sequence (Q01973 312-391): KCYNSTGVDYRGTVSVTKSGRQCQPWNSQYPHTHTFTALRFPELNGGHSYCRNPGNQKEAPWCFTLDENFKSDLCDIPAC
# T1 sequence (Q01973 30-937): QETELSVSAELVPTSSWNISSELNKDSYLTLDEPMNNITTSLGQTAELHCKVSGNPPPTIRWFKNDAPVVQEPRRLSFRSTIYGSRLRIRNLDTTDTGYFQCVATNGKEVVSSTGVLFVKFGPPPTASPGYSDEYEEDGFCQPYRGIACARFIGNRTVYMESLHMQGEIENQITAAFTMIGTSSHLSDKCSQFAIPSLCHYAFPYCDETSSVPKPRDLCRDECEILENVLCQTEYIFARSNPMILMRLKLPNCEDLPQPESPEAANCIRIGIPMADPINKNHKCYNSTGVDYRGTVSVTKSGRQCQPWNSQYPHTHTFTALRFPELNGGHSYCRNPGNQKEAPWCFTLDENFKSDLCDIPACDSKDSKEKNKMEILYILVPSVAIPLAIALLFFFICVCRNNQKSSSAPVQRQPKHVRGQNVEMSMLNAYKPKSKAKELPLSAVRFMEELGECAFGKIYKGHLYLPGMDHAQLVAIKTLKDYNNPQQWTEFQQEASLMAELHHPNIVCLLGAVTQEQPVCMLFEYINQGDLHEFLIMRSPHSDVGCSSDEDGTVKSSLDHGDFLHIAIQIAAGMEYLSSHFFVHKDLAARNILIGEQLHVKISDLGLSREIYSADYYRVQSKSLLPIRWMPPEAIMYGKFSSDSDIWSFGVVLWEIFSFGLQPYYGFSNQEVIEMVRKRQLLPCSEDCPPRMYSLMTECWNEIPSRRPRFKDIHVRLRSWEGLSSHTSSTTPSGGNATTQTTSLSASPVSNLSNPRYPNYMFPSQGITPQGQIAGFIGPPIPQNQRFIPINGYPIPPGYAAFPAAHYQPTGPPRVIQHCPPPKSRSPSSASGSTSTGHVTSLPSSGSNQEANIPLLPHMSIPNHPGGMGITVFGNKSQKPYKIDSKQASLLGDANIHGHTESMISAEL
# T3 sequence (Q01973 30-406): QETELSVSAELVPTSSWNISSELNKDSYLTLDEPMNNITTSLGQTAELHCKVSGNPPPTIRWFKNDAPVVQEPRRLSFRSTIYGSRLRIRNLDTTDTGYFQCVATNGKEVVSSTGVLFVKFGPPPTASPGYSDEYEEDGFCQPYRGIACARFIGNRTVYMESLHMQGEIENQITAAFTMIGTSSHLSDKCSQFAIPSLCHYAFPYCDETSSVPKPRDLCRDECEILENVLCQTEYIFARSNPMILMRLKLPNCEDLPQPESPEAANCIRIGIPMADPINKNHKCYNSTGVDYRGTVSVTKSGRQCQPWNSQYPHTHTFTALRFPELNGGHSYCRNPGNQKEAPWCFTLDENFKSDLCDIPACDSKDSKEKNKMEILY
# T5 sequence (Q01973 30-147 limits assumed): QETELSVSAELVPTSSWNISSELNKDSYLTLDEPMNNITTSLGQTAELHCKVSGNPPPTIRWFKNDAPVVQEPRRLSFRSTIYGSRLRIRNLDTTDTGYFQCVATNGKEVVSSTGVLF
# T2 sequence (Q01974 34-403 limits assumed): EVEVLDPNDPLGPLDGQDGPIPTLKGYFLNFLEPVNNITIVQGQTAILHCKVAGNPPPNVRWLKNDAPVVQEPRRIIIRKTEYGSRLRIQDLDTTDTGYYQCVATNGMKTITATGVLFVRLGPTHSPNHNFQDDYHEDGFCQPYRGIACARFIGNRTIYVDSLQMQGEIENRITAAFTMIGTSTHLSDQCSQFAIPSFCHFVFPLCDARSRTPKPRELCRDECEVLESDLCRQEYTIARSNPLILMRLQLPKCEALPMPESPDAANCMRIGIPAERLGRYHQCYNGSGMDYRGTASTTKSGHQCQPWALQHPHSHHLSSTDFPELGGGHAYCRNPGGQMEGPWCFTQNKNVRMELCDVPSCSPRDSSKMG
# T6 sequence (Q01973 30-299 limits assumed): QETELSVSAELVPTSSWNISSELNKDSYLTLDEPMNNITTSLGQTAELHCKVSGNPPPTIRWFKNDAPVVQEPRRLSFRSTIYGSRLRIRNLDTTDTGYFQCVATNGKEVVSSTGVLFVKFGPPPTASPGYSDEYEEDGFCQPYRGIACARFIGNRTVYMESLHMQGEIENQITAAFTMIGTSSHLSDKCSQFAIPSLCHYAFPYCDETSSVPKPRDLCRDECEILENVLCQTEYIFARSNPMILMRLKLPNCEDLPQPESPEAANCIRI
# T7 sequence (Q9Z139 30-406): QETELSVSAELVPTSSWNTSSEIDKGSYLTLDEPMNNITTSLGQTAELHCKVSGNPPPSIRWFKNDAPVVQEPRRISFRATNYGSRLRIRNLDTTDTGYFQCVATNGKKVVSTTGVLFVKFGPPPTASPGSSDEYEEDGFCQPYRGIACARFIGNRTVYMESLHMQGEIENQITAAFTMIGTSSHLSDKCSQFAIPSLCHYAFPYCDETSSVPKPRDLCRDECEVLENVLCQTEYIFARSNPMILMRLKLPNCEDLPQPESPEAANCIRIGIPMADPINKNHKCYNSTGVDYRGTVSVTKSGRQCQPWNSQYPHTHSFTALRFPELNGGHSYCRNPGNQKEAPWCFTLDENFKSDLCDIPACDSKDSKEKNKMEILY
# T4 sequence (Q01973 165-299 limits assumed): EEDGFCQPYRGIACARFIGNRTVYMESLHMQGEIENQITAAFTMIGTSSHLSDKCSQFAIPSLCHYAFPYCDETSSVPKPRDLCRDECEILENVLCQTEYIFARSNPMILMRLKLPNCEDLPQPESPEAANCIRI
# T9 sequence (Q01973 165-406 limits assumed): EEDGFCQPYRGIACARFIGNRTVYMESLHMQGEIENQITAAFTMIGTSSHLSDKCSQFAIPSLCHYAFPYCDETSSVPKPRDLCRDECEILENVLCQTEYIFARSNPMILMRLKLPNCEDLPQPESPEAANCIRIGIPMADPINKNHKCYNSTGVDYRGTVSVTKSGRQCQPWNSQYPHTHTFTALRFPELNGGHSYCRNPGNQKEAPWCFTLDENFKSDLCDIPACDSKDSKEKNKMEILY
Binder,MFI (cell surface human ROR1 [1]),binding result (Fc-hROR1ig [4]),binding result (Fc-hROR1ig+fz),MFI (cell surface human ROR1 [5]),MFI (cell surface human ROR1 [6]),binding result (Fc-hROR1kr [9]),binding result (Fc-hROR1ig [12]),binding result (Fc-hROR1kr [14]),further results
B1,64.9 MFI,no binding (tested: not given),no binding (tested: not given),6.6 MFI,18.1 MFI,,,,"binding result [2]: no binding (tested: not given); factor of increase of virtual affinity, IgG1 against Fab [3]: 14 fold; binding result (Fc-hROR1fz): no binding (tested: not given)"
B2,122 MFI,no binding (tested: not given),,89.4 MFI,97.9 MFI,no binding (tested: not given),,,"factor of increase of virtual affinity, IgG1 against Fab [7]: 5 fold; binding result [8]: no binding (tested: not given); binding result (Fc-hROR1fz+kr): no binding (tested: not given)"
B3,21.6 MFI,no binding (tested: not given),no binding (tested: not given),,8.3 MFI,no binding (tested: not given),,,"factor of increase of virtual affinity, IgG1 against Fab [10]: 12 fold"
B4,,,,,,,,,binding result [11]: no binding
B5,,,,,,,no binding,no binding,binding result [13]: no binding (tested: 1.5 to 100 nM)
B6,,,,,,,no binding,no binding,
